Tests used:
Ramos NHL cells = assay: In vitro cytotoxicity assay, Ramos cells; assay type: cell-based, human; details: after 48 hours
Description: (§1) FIGS. 2A-C illustrate anti-CD22 mediated cytotoxicity and CD22 internalization. (A) Ligation of CD22 mediates cytotoxicity of NSCLC and NHL B cells. Cells were treated with the anti-CD22 or anti-CD20 mAbs (HB22.7 or rituximab, respectively) (50 ug/ml) for 48 hr then assessed with an MTT assay. (B) Internalization of CD22 was assessed on NSCLC cell lines. The degree of internalization was determined by assessing the cytotoxicity of a carrier protein attached to an anti-mouse mAb (ZAP) compared to a non-cytotoxic control (SAP). HB22.7-ZAP and HB22.7-SAP were assessed in Ramos B-cells (top) and two NSCLC cell lines, A549 and H727 (bottom). […] PBMCs (10:1 PBMC:A549 ratio) were incubated +/− complement (1:10 dilution), or +/− huHB22.7 (50 μg/cc). A549-specific cytotoxicity was assessed with a DELFIA EuTDA cytotoxicity assay and reported as % of control.
(§2) Ramos, A549, or H1650 cells (2-2.5×10^4 per sample) were plated in triplicate in 96 well round bottom plates in a volume of 100 μL per well. Cells were treated for 1 hour with HB22.7, or rituximab to final concentrations of 25 μg/mL. Control cells received media only. […] Viability was assessed by trypan blue exclusion; experiments were done in triplicate and results were expressed as % of control (untreated cells) with the error bars representing the standard deviation.

[1] = test system: NSCLC lines (H1650, Calu-1, A549); assay: In vitro cytotoxicity assay, NSCLC lines; assay type: cell-based, human; details: after 48 hours
Description: as §1, §2

rituximab: anti-CD20 control mAb
cytotoxic effects (Ramos NHL cells): cytotoxic effects | cytotoxic response [1]: no cytotoxic response

— patent US20140248278A1, “ANTI-CD22 ANTIGEN BINDING MOLECULES TO TREAT LUNG CANCER AND PROSTATE CANCER” (The Regents of the University of California, priority 2011, published 2014)
